# Data reported in paper PMC7954794, “Protein context shapes the specificity of SH3 domain-mediated interactions in vivo” (Nature Communications, 2021).
# B1: Lsb1 (protein, UniProt P53281 2-241, looked up)
# LAS seventeen-binding protein …: SASLVNRSLKNIRNELEFLKESNVISGDIFELINSKLPEKWDGNQRSPQNADTEEYVEALYDFEAQQDGDLSLKTGDKIQVLEKISPDWYRGKSNNKIGIFPANYVKPAFTRSASPKSAEAASSSTVSRPSVPPPSYEPAASQYPSQQVSAPYAPPAGYMQAPPPQQQQAPLPYPPPFTNYYQQPQQQYAPPSQQAPVEAQPQQSSGASSAFKSFGSKLGNAAIFGAGSAIGSDIVNSIF
# B2: Hof1 (protein, UniProt Q05080 1-669, looked up)
# Cytokinesis protein 2: MSYSYEACFWDPNDNGVNILLGHISQGIRSCDSMILFFKQRSELEKDYARRLGAITGKLDKDIGTNMDYGKLNETFNVVLSVEKARAQSHSKQSEILFRQIYTDTKAFAANLQARYTTLSGKIERLRMDKFNKKKGCEVLQKKLQDAQIRFRDLQLNENNMIGAKRVEHNKRELLKWESNSQEYKVQLDVLKQEYKASQKFWIHEWAQLSCELQEMENARISFLQSKLQQFATSSMETYILEQTKMDMLTNHLNSFTAADEISTFSKENGTGRLKHKTSKGDMNSSANWAQMSSISTTSKKTESYMDNIRKLSSQLKETENKRKLASIDKYEKPLPSPEVTMATQFRNSTPVIRNETKVVANPTLSLRSSPVQLQSNVDDSVLRQKPDKPRPIVGEEQLKPDEDSKNPDEKGLMVHKRNQSLSSPSESSSSNPTDFSHIKKRQSMESMTTSVSSMANSIDDSQRFAKSWNSSNRKRKSMSHLQVPSSASSRSDDGGRTPNSAHNLNEDDYNTRRDTSTSTILFKPPVAVRGTSRGHTHRQSMIMQDSSNPIEDALYEMERIQSSSKPGTKTGNIMDERGVVRDRGITVTLPIVTSEGFPVIEYAKAMYPLIGNEAPGLANFHKGDYLLITEIVNKDWYKGEVYDNDRIDRNHRIGLIPYNFIQLLHQGL
# B3: Hse1 (protein, UniProt P38753 2-452, looked up)
# Class E vacuolar …: SSSAIKIRNALLKATDPKLRSDNWQYILDVCDLVKEDPEDNGQEVMSLIEKRLEQQDANVILRTLSLTVSLAENCGSRLRQEISSKNFTSLLYALIESHSVHITLKKAVTDVVKQLSDSFKDDPSLRAMGDLYDKIKRKAPYLVQPNVPEKHNMSTQADNSDDEELQKALKMSLFEYEKQKKLQEQEKESAEVLPQQQQQHQQQNQAPAHKIPAQTVVRRVRALYDLTTNEPDELSFRKGDVITVLEQVYRDWWKGALRGNMGIFPLNYVTPIVEPSKEEIEKEKNKEAIVFSQKTTIDQLHNSLNAASKTGNSNEVLQDPHIGDMYGSVTPLRPQVTRMLGKYAKEKEDMLSLRQVLANAERSYNQLMDRAANAHISPPVPGPALYAGMTHANNTPVMPPQRQSYQSNEYSPYPSNLPIQHPTNSANNTPQYGYDLGYSVVSQPPPGYEQ
# B4: Fus1 (protein, UniProt P11710 1-512, looked up)
# Nuclear fusion protein FUS1: MVATIMQTTTTVLTTVAAMSTTLASNYISSQASSSTSVTTVTTIATSIRSTPSNLLFSNVAAQPKSSSASTIGLSIGLPIGIFCFGLLILLCYFYLKRNSVSISNPPMSATIPREEEYCRRTNWFSRLFWQSKCEDQNSYSNRDIEKYNDTQWTSGDNMSSKIQYKISKPIIPQHILTPKKTVKNPYAWSGKNISLDPKVNEMEEEKVVDAFLYTKPPNIVHIESSMPSYNDLPSQKTVSSKKTALKTSEKWSYESPLSRWFLRGSTYFKDYGLSKTSLKTPTGAPQLKQMKMLSRISKGYFNESDIMPDERSPILEYNNTPLDANDSVNNLGNTTPDSQITSYRNNNIDLITARPHSVIYGTTAQQTLETNFNDHHDCNKSTEKHELIIPTPSKPLKKRKKRRQSKMYQHLQHLSRSKPLPLTPNSKYNGEASVQLGKTYTVIQDYEPRLTDEIRISLGEKVKILATHTDGWCLVEKCNTQKGSIHVSVDDKRYLNEDRGIVPGDCLQEYD
# B5: Cyk3 (protein, UniProt Q07533 1-885, looked up)
# Cytokinesis protein 3: MATNLTSLKPPFKVKARYGWSGQTKGDLGFLEGDIMEVTRIAGSWFYGKLLRNKKCSGYFPHNFVILLEERLNSSTENGRQPSKIVESFEKSNKVVIPPVPSRYSDERPRPKKKLSSSMPNSPKKPVDSLTKARKAKSKEMVNEKNIYNTQSSRHHNNSAPNLPLASHSKPQVRNFEESMNNPLPPLPPLPDLDNMRKTDKRAPKKSYSANDLHMARSSREYNYYKDNQKFYDGFIPEKRYSLEEDSISSGLFSNSQYLNDSACSSENSFALMSDFSATSAGSFARHKYAQSFSDSLQRSQNANGCSTKINDSQEFGDSNASSRNGKMGDILRKIIIPKRNTNIYSSSVSSPKSPKAYPKLPDIQNLNLSATPDEARDWIAVKCHLNRARTLTKYDKHPRYMRALEENRDLILHPQDSIYNGLNTNEVKGNTKPGLVDVELAELNIEYIDKMTWKRCIRDGTMTLDSWAQTTFSARYSTVLEKLRGIYIFCTEMFALTDDNGTSDFSAEPQNLEKILYRKHCTPYELTWLFKKLANSLGITCEIVIGFLKTPSAINWEFKYNHCWLRILVNKEWRFIDVILGNVTNPIHEFVNNRKIKKAENSYFLMAPLEMIYTHIPPREFEQHIVPSIDQLSALYLPLVFPSFFKNELKLYKFSTALSFLEDSEIYECSLEIPNDVEVFASVVIPTDNEEASSAYRNMELALTQIKKQKAESGRRIALIKAVLPPNVNKGSLYIHSGVRGTQTSIANIHPLSMMVPLTHKGSNMKYEFVIKIPSESIQKIELYIVEPQSRYLFVGNEYSFEVIQSPSDGIVYSSDEGPNQNRKQPMAIKSPSGRVHELVKSDPHFPYGTWKGSIKIKEPGVWSALVIADSGIGWSVFAEWLCV
# Legend:
# [1] = test system: Abp1 PPIs; assay: DHFR-PCA of Abp1 SH3-swapped baits (Fig. 2B-D, S2C, S2F); type: cell-based, Saccharomyces cerevisiae; details: number of interactions of Abp1 carrying the named SH3; sheet FigS2A-B
# Description: Having determined that multiple PPIs require SH3s, we asked whether the latter establish PPI specificity independently from their host proteins by swapping domains (Fig. 2A). Using the second round of genome editing, we individually replaced Abp1 SH3 with the 27 yeast SH3s and 3 human Abp1 orthologs’ SH3s (CTTN, HCLS1, and DBNL, Fig. 2B). The reintroduction of its own SH3 (Abp1SH3 in Abp1) reconstitutes almost perfectly Abp1’s interaction profile (Kendall’s τ = 0.93, Fig. 2B). […] No homologous SH3 domain fully re-establishes the normal Abp1 PPI profile (Fig. 2B and Supplementary Fig. 2C). However, we observe a significant correlation (cophenetic correlation = 0.20, p value = 0.005, Fig. 2C) between the similarity of PPI profiles (Fig. 2B) and the sequence similarity of the SH3s. […] Nonetheless, a subset of SH3-dependent PPIs is only observed with the endogenous domain. For instance, Hua2 and App1, both well-characterized partners of Abp1[14],[18],[19], are only detected when Abp1 contains its own SH3 (WT or swapped via editing). A given SH3 may therefore not be fully replaceable with other paralogous or orthologous domains. This pattern is confirmed by cellular growth phenotypic analyses (Supplementary Fig. 2D, E). PPIs, SH3 sequence similarity, and growth profiles under stress conditions are correlated (Supplementary Fig. 2D, E). This relationship is particularly clear when analyzing growth on media supplemented with hygromycin.
# The stuffing of YSC84 SH3 rendered the strain sterile and was therefore not used for this study as the assays require crosses. For genes containing two SH3s (BZZ1 and BEM1), a combination of this first stuffer with a second one ([…]) coding for a highly similar linker ([…]) was used, which allowed targeting each SH3 position independently. The two N-terminal domains of SLA1, which are separated by six nucleotides, were stuffed by a single stuffer. Cells containing pCAS were selected via the G418 resistance cassette from the plasmid on YPD plates (YPD + NAT 100 μg/ml (DHFR F[1,2] selection) + G418 200 µg/mL (Bioshop Canada)). Colonies were randomly selected and grown in YPD media without G418 to allow plasmid loss. The correct insertion of the stuffer was validated by PCR and Sanger sequencing. The SH3-swapped, -shuffled, and -mutated strains were constructed following a second CRISPR–Cas9 editing step with the same procedures. The stuffer sequences were targeted by specific gRNAs (one gRNA per stuffer) and replaced by PCR amplified specific SH3 (with 40 bp homology arms) or libraries of mutated SH3 domains for Deep Mutational Scanning (DMS) with 78 bp flanking homology regions. Validation of the SH3 domain insertions was done as we previously described except for DMS libraries (see below).
# The overall DHFR-PCA pipeline is based on Tarassov et al.[43] and the procedures have also been published as a visualized protocol. The screens were performed with robotically manipulated pin tools (BM5-SC1, S&P Robotics Inc.). First, the preys were cherry-picked from 96-well plates to omnitrays in a 384 format on YPD + HPH solid media. Plates were then combined into the 1536 format on YPD + HPH. The array was constituted of 575 preys previously shown to interact physically with at least one SH3-containing protein as reported in BioGRID V3.4.16 along with 40 negative controls. The prey array comprised a border of control strains of two rows and two columns corresponding to the PPI between LSM8-DHFR F[1,2] and CDC39-DHFR F[3]. This double border was used to remove border effects. Preys are present in duplicate at a randomized position in the 1536 array (except for YAL041W which is present four times per array). Baits were crossed with two prey plates, resulting in four independent bait–prey tests for each PPI. Baits were grown in liquid YPD + NAT and then transferred on solid YPD + NAT omnitrays. They were then replicated on YPD + NAT omnitrays in 1536 array format. […]
# [2] = test system: Abp1 (1xFLAG); assay: Western blot expression level of Abp1 SH3-swapped baits (Fig. S2A-B); type: cell-based, Saccharomyces cerevisiae; parameters: Flag (2 bands): unit not given here; details: sheet FigS2A-B; for Ratio Swap/WT Flag: Flag signal relative to Abp1 WT (Abp1-1 to Abp1-4 = 1); for Flag (2 bands): Western blot Flag signal (2 bands), Abp1 WT, SH3-deleted or SH3-swapped
# Method: Precultures of yeast cells expressing baits fused with the DHFR F[1,2]-FLAG were grown overnight at 30 °C with agitation in synthetic complete medium. The next day, cells were expanded in synthetic complete medium to reach their exponential phase (OD600 of around 1.0), pelleted, and frozen at −80 °C. The equivalent of fifty OD600 of cells was resuspended in ice-cold yeast lysis buffer (10 mM Tris-HCl pH 7.4, 150 mM NaCl, 0.5 mM EDTA (Millipore Sigma), 1% Triton X-100 (Millipore Sigma), and one cOmplete Mini Protease Inhibitor Cocktail (Millipore Sigma) per 10 mL) with […] glass beads (Millipore Sigma) and disrupted at 4 °C by 10 cycles of 2 min vortexing and 2 min cooldown. The equivalent of […] of lysed cells was used for the immunoprecipitation of the bait proteins using FLAG-M2 agarose beads (Millipore Sigma). The beads were incubated with the cell lysates for 120 min at 4 °C with a slow rotation, followed by three washes with the yeast lysis buffer.
# Protein extracts and affinity-purified baits from yeast and human lysed cells were migrated on 10% polyacrylamide gels. The separated proteins were then transferred to nitrocellulose membranes. Validation of correct protein loading was done with ponceau staining of the membranes. Before the primary antibody incubations, membranes were blocked in 5% milk. Protein signals were detected on an Amersham Imager 600RGB (GE Healthcare) following the incubation of the membranes with the appropriate HRP-conjugated secondary antibodies and the Clarity Western ECL Substrate (Bio-Rad). The antibodies used in this study are M2-HRP (A8592, Sigma, 1/50,000), rabbit anti-FLAG (F7425, Sigma, 1/1000), PAK (SC-881, Santa Cruz, 1/200), p130cas/BCAR1 (SC-860, Santa Cruz, 1/200), actin (Cell Signaling Technology, 1/2000), anti-mouse HRP (Cell Signaling Technology, 1/10,000) and anti-rabbit HRP (Cell Signaling Technology, 1/10,000). The quantification of the WB signals was performed with the Amersham Imager 600 analysis software (GE Healthcare).
Molecule,Interactions in Abp1 [1],Ratio Swap/WT Flag [2],Flag (2 bands) [2]
B1,106,0.4741,50638
B2,15,1.051,112286
B3,77,0.5073,54180
B4,50,0.8195,181205
B5,25,0.2689,59466
